1 molecule from US20180292409A1 (REGENTS OF THE UNIVERSITY OF MINNESOTA, published 2018) can be followed below.

For the test, the target named is T1, progesterone receptor (PR) (human, UniProt P06401 1-933, limits assumed).
T1 construct: also called total PR; PR-A
T1 sequence (looked up): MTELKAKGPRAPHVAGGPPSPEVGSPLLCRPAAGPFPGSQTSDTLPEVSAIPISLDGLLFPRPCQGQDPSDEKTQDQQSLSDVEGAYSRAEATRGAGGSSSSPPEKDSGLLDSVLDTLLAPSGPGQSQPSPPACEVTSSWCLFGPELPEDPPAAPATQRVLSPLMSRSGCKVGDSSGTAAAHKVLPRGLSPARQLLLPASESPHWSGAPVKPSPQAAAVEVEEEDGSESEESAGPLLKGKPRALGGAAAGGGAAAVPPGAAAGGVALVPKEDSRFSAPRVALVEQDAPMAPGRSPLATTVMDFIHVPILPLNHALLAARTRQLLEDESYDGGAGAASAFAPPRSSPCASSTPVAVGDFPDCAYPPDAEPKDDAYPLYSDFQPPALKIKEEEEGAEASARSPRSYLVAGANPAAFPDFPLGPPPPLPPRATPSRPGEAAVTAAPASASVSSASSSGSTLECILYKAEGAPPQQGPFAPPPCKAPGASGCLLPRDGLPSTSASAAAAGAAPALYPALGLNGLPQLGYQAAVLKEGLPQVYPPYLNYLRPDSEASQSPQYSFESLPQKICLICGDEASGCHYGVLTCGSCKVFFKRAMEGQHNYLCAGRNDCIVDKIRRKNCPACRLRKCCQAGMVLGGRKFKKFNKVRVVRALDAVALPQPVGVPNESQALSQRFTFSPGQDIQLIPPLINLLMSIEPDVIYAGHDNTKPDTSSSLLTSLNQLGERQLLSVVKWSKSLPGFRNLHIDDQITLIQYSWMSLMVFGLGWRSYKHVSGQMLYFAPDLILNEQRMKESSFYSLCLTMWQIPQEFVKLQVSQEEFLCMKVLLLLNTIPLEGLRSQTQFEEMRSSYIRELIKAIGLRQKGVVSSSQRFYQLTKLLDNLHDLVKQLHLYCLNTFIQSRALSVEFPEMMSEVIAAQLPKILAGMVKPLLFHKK
Kind of test: co-immunoprecipitation from breast cancer cell whole cell lysates.

B1: RUNX2 (other, UniProt Q13950 1-521, looked up)
chain: MASNSLFSTVTPCQQNFFWDPSTSRRFSPPSSSLQPGKMSDVSPVVAAQQQQQQQQQQQQQQQQQQQQQQQEAAAAAAAAAAAAAAAAAVPRLRPPHDNRTMVEIIADHPAELVRTDSPNFLCSVLPSHWRCNKTLPVAFKVVALGEVPDGTVVTVMAGNDENYSAELRNASAVMKNQVARFNDLRFVGRSGRGKSFTLTITVFTNPPQVATYHRAIKVTVDGPREPRRHRQKLDDSKPSLFSDRLSDLGRIPHPSMRVGVPPQNPRPSLNSAPSPFNPQGQSQITDPRQAQSSPPWSYDQSYPSYLSQMTSPSIHSTTPLSSTRGTGLPAITDVPRRISDDDTATSDFCLWPSTLSKKSQAGASELGPFSDPRQFPSISSLTESRFSNPRMHYPATFTYTPPVTSGMSLGMSATTHYHTYLPPPYPGSSQSQSGPFQTSSTPYLYYGTSSGSYQFPMVPGGDRSPSRMLPPCTTTSNGSTLLNPNLPNQNDGVDADGSHSSSPTVLNSSGRMDESVWRPY
notes: also called runt-related transcription factor 2
Take B1: the binding result is “no binding”.
